Results published in patent publication US20030203464.

B1: Type I Rac-GEF (protein)
chain: MEYMPMEIRHDLEILQPEEIKLQEAMFELVTSEASYYKSLNLLVSHFMENERIRKILHPSEAHILFSNVLDVLAVSERFLLELEHRMEENIVISDVCDIVYRYAADHFSVYITYVSNQTYQERTYKQLLQEKAAFRELIAQLELDPKCRGLPFSSFLILPFQRITRLKLLVQNILKRVEERSERECTALDAHKELEMVVKACNEGVRKMSRTEQMISIQKKMEFKIKSVPIISHSRWLLKQGELQQMSGPKTSRTLRTKKLFHEIYLFLFNDLLVICRQIPGDKYQVFDSAPRGLLRVEELEDQGQTLANVFILRLLENADDREATYMLKASSQSEMKRWMTSLAPNRRTKFVSFTSRLLDCPQVQCVHPYVAQQPDELTLELADILNILDKTDDGWIFGERLHDQERGWFPSSMTEEILNPKIRSQNLKECFRVHKMDDPQRSQNKDRRKLGSRNRQ
B2: Type II Rac-GEF (protein)
chain: B1 chain

RhoA, P61586, sequence (P61586 whole entry): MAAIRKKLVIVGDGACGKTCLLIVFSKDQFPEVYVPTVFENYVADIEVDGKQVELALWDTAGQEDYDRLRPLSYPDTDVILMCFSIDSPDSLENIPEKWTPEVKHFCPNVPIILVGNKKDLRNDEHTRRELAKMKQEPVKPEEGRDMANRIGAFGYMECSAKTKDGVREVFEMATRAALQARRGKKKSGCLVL
Cdc42, P60953, sequence (P60953 whole entry, looked up): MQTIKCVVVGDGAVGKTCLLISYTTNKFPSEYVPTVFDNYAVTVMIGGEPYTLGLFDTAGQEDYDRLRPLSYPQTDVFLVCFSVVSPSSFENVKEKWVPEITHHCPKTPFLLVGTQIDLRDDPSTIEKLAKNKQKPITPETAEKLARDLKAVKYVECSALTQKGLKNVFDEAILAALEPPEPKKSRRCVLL

Protein | exchange activity on Rac1, RhoA and Cdc42 (Cdc42, P60953) | exchange activity on Rac1, RhoA and Cdc42 (Rac1, P63000) | exchange activity on Rac1, RhoA and Cdc42 (RhoA, P61586)
B1 | but also displays activity against both RhoA and Cdc42 | Rac GEF is primarily selective for Rac1 | but also displays activity against both RhoA and Cdc42
B2 | but also displays activity against both RhoA and Cdc42 | Rac GEF is primarily selective for Rac1 | but also displays activity against both RhoA and Cdc42
